Assay results reported in paper PMC6181577 (Molecular cell, 2018).

B1: UBQLN2 450–624 (domain or fragment, human)
chain: RAMQALMQIQQGLQTLATEAPGLIPSFTPGVGVGVLGTAIGPVGPVTPIGPIGPIVPFTPIGPIGPIGPTGPAAPPGSTGSGGPTGPTVSSAAPSETTSPTSESGPNQQFIQQMVQALAGANAPQLPNPEVRFQQQLEQLNAMGFLNREANLQALIATGGDINAAIERLLGSQPSW
B2: UBQLN2 379–624 (domain or fragment, human)
chain: NPQLIQNMLSAPYMRSMMQSLSQNPDLAAQMMLNSPLFTANPQLQEQMRPQLPAFLQQMQNPDTLSAMSNPRAMQALMQIQQGLQTLATEAPGLIPSFTPGVGVGVLGTAIGPVGPVTPIGPIGPIVPFTPIGPIGPIGPTGPAAPPGSTGSGGPTGPTVSSAAPSETTSPTSESGPNQQFIQQMVQALAGANAPQLPNPEVRFQQQLEQLNAMGFLNREANLQALIATGGDINAAIERLLGSQPSW

What was measured:
SEC = biological target: the molecule itself; experiment: SEC
Ubiquitin (WT) = Ubiquitin (WT) (UniProt P0CG48 1-76); experiment: NMR titration

| Binder | binding result (SEC) | Kd (Ubiquitin (WT)) |
| --- | --- | --- |
| B1 | binds | 3000 nM |
| B2 | binds |  |
